Publication PMC6305311

Substrate: O=[N+]([O-])c1ccc(O[C@@H]2O[C@H](CO)[C@@H](O)[C@H](O)[C@H]2O)cc1
Experiment: purified protein
Conditions: 5 min, pNPG 0.5-5.0 mg/ml
[1] = optimal pH 6.0 and temperature 50°C, pH 6.0, 50.0 °C
[2] = optimal pH (6.0) and temperature

Protein | Km [1] | Vmax [1] | kcat [1] | Km [2] | Vmax [2] | kcat [2]
AaBGL2 (Thermomonospora amylolytica) (protein) MTAHETQAQIREPATAPFPQDFRWGAATSAYQIEGAVAEDGRGRSIWDTFCDTPGAVLGGDTAAEAVDHYHRYREDVALMAGLGLNAYRFSLSWPRIQPSGTGPADQRGLDFYRRLVDELLEAGIEPWITLYHWDLPQALEDKGGWPERDTALRFAEFAALAHGALGDRVSNWMTINEPWCAAYLGYASGEHAPGRREPAAALEAAHHLLLGHGLAVEAMRGQRSGARIGPAVNLYAVSPAADTPEDLDAARRIDGLQNRFFLDALLLGRYPDDLLEDLAPFGFADCVRDGDMRVVGVRNDLLGINYYTRHTVSGRPGDATQAVSSPFSTVSPWVGSEHVRFVGQGKPVTGMGWEVDPDGLLEVLARLHREYPAVPLYITENGAGYDDVLDADDAVRDDERIAYLDAHLRVCARAIDAGIPLRGYFTWSLMDNFEWAWGYSKRFGLVYVDYATQRRIPKASARWYARTIRRGGLPD | 730 µM | 1.9 µmol/min/mg | 1.7 s⁻¹ | – | – | –
AaBGL1 (Thermomonospora amylolytica) (protein) MNLPADFLFGAATSAYQIEGAPAADGRLPSIWDDFCRVPGAIAGGDTGDVACDHYHRWREDVALMRRLGLDAYRFSVAWPRVVPRGTGEVNRPGLDFYDRLVDALLAAGIRPFVTLYHWDLPSALQERGGWPSRDTAAHFADYAAVVAARLGDRVTDWTTLNEPLCTAWIGHLEGRFAPGVRDLRQAVHASHHLLLAHGLGAAAIRANASAPPSIGLVNNLSPIQAASDRPEDVRAAIRADGHVNRWWLDPAHGRGYPADMIEVYGVEPPVRDGDLETIAAPVEYVGLNYYFRQIVADDPDGPAPYARQVPVPGAQTTAMGWEVHADGLAELLLRLSEDYTAPRIYVTESGSAWDDKVGADGSINDQDRIAYLEDHLAAVARAAEAGAPVQGYFVWSLLDNFEWADGLDKRFGLVHVDYATQQRTVKASGHRYAEIIRAHRGAP | – | – | – | 3300 µM | 6.8 µmol/min/mg | 5.5 s⁻¹
